These results are taken from PMC5362245, “Depletion of Arabidopsis SC35 and SC35-like serine/arginine-rich proteins affects the transcription and splicing of a subset of genes”.

The target in data set [1] is T1, SCL30 (UniProt Q8L3X8 1-262).
T1 sequence: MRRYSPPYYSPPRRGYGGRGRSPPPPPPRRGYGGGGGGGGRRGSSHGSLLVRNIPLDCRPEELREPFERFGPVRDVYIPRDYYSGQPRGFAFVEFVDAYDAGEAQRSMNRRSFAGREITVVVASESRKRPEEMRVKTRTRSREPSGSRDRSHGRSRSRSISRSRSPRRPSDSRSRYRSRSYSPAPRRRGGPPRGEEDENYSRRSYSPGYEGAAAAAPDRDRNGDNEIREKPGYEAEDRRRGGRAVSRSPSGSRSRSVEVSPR
The data set can be described thus: competition; mutated probe failed to compete with N1; 20 ul, 2 ug tRNA, 10 nM biotin-RNA, LightShift Chemiluminescent RNA EMSA kit buffer (salt and pH not stated), 30 min room temperature; 6% native PAGE in 0.5x TBE. Conditions: protein: recombinant; tags: His. A general note: In EMSA bound probe runs differently from free probe, usually more slowly.

Data set [2] has as its target T1, SCL30. The data set can be described thus: EMSA; 2 ug tRNA, 10 nM labeled RNA; 20 ul, 2 ug tRNA, 10 nM biotin-RNA, LightShift Chemiluminescent RNA EMSA kit buffer (salt and pH not stated), 30 min room temperature; 6% native PAGE in 0.5x TBE. Conditions: protein: recombinant; tags: His; label: 5' biotin.
Data set [3] addresses T1, SCL30. Put plainly: competition; 0.625-5 uM unlabeled RNA vs 10 nM N1, 0.4 ug SCL30; labeled binding abolished at 5 uM; 20 ul, 2 ug tRNA, 10 nM biotin-RNA, LightShift Chemiluminescent RNA EMSA kit buffer (salt and pH not stated), 30 min room temperature; 6% native PAGE in 0.5x TBE. Conditions: protein: recombinant; tags: His; label: none.

B1: AT1G53250 mutated RNA probe (AGAAGA to UCUUCU) (ssRNA)
RNA: AGAUUAAUCUUCUGGAAAGGAGAAGG
B1: the binding result with SCL30 [1] was “no binding”.

B2: AT1G53250 AGAAGA RNA probe (ssRNA)
RNA: AGAUUAAAGAAGAGGAAAGGAGAAGG
Regarding B2, in the data set with SCL30 [2], the binding result is listed as “binds”.

B3: AT1G53250 RNA, unlabeled competitor (ssRNA)
RNA: AGAUUAAAGAAGAGGAAAGGAGAAGG
For B3, in the data set with SCL30 [3], the binding result is listed as “binds”.
